Laboratory results from US20210079557A1, “Methods and Compositions for Protein and Peptide Sequencing” (Google LLC, published 2021).
No end group written: not given here.

T1: bradykinin peptide-oligo conjugate (synthetic, also: C-terminal Cys conjugated to 3' end of DNA oligo tail)
T1 chain: RPPGFSPFRC

T2: argipressin peptide-oligo conjugate (synthetic, UniProt P01185 P01185:20-28, ends and bridges not checked; also: oligonucleotide conjugate, site not given here)
T2 chain: CYFQNCPRG

B1: argipressin BCS aptamer 2 (ssDNA)
DNA: GAGAGTTAGTCAGCAGGGATAACGAATTCGTATAGGCGCAGCATTTGATTCTGCTGCGTGCATACCCCTGTGTGTTATCCCTACTTGGCGTTCTTACCACCA
modifications: 5'-phosphate
B2: argipressin BCS aptamer 1 (ssDNA)
DNA: GAGAGTAAAGCCGATAGGATAACGAATTCGTATAGGCGCAGGATGGACTTGATAACCTTCTGCTGCGTGCCTTGATGTGCTTACTTGGCGTTCTTACCACCA
modifications: 5'-phosphate
B3: argipressin BCS aptamer 3 (ssDNA)
DNA: GAGAGTCCACGTGCACAGATAACGAATTCGTATAGGCGCAGCATACATCGGACATACATCCTGCGTGCATCCACCTTTGCATACTTGGCGTTCTTACCACCA
modifications: 5'-phosphate

Tests used:
[1] = target: T1, bradykinin peptide-oligo conjugate; experiment: no off-target hits; settings: tags: C-terminal Cys conjugated to DNA oligo tail tethered to flow cell (Genscript)
[2] = target: T2, argipressin peptide-oligo conjugate; experiment: barcode ligation sequencing on flow cell, over 100 hits on argipressin foundations; settings: tags: C-terminal DNA oligo tail tethered to flow cell (Genscript)

Row | Binder | binding result [1] | binding result [2]
1 | B1 | no binding | binds
2 | B2 | no binding | binds
3 | B3 | no binding | binds
